Experimental findings from the supplement of paper PMC5998384 are described below.

Series [1] concerns HeLa Kyoto. As to the kind of experiment: solubility in G1/S (NP-40 vs SDS abundance) (log2 ratio); higher = more soluble. To be noted: cell cycle stage: G1/S.
Series [2] concerns HeLa Kyoto. As to the kind of experiment: melting temperature (median over replicates), in situ; higher = more thermally stable.
For series [3], the system named is HeLa Kyoto. Put plainly: solubility change mitosis vs G1/S (difference of NP-40 vs SDS log2 ratios) (log2 ratio difference); higher = more soluble in mitosis.
The subject of series [4] is HeLa Kyoto. Put plainly: thermal stability score vs G1/S (z-score of summed log2 fold changes over temperatures); higher = more thermally stable than in G1/S.
The mark [5] stands for this setting: cell cycle stage: early G1 (4.5 h after nocodazole release).
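For melting temperature (median over replicates), in situ in this document: HeLa Kyoto cells synchronized by double thymidine or nocodazole block, proteins quantified by TMT10plex mass spectrometry, three independent biological replicates.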
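For solubility change mitosis vs G1/S (difference of NP-40 vs SDS log2 ratios) in this document: synchronized HeLa Kyoto cells (double thymidine block for G1/S, nocodazole release for mitosis), protein amounts in NP-40 versus SDS lysates quantified by mass spectrometry, three biological replicates.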
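For solubility in G1/S (NP-40 vs SDS abundance) in this document: HeLa Kyoto cells arrested at G1/S by double thymidine block, proteins quantified by TMT10plex mass spectrometry in mild NP-40 versus SDS extracts, three biological replicates.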
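For thermal stability score vs G1/S (z-score of summed log2 fold changes over temperatures) in this document: synchronized HeLa Kyoto cells, proteins quantified by TMT10plex mass spectrometry, three biological replicates, mitosis taken 0.5 h after nocodazole release, G1/S directly after double thymidine block.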

With “MAGLTVRDPAVDRSLRSVFVGNIPYEATEEQLKDIFSEVGPVVSFRLVYDRETGKPKGYGFCEYQDQETALSAMRNLNGREFSGRALRVDNAASEKNKEELKSLGTGAPVIESPYGETISPEDAPESISKAVASLPPEQMFELMKQMKLCVQNSPQEARNMLLQNPQLAYALLQAQVVMRIVDPEIALKILHRQTNIPTLIAGNPQPVHGAGPGSGSNVSMNQQNPQAPQAQSLGGMHVNGAPPLMQASMQGGVPAPGQMPAAVTGPGPGSLAPGGGMQAQVGMPGSGPVSMERGQVPMQDPRAAMQRGSLPANVPTPRGLLGDAPNDPRGGTLLSVTGEVEPRGYLGPPHQGPPMHHVPGHESRGPPPHELRGGPLPEPRPLMAEPRGPMLDQRGPPLDGRGGRDPRGIDARGMEARAMEARGLDARGLEARAMEARAMEARAMEARAMEARAMEVRGMEARGMDTRGPVPGPRGPIPSGMQGPSPINMGAVVPQGSRQVPVMQGTGMQGASIQGGSQPGGFSPGQNQVTPQDHEKAALIMQVLQLTADQIAMLPPEQRQSILILKEQIQKSTGAP [CSTF2]”, in series [1], the “solubility in G1/S (log2)” value was found to be 0.323. The figures for the melting temperature in series [2] (cell cycle stage: G1/S) and in series [2] (cell cycle stage: mitosis) were 53 °C and 53.2 °C, respectively. The “solubility change mitosis (log2)” value in series [3] amounted to 0.172. Besides, the thermal stability score was -0.643 in series [4] (setting [5]) and -0.392 in series [4] (cell cycle stage: mitosis).

Regarding “MATNFLAHEKIWFDKFKYDDAERRFYEQMNGPVAGASRQENGASVILRDIARARENIQKSLAGSSGPGASSGTSGDHGELVVRIASLEVENQSLRGVVQELQQAISKLEARLNVLEKSSPGHRATAPQTQHVSPMRQVEPPAKKPATPAEDDEDDDIDLFGSDNEEEDKEAAQLREERLRQYAEKKAKKPALVAKSSILLDVKPWDDETDMAQLEACVRSIQLDGLVWGASKLVPVGYGIRKLQIQCVVEDDKVGTDLLEEEITKFEEHVQSVDIAAFNKI [EEF1D]”, the “solubility in G1/S (log2)” value in series [1] turned out to be 0.332. Moreover, the melting temperature in series [2] (cell cycle stage: G1/S) and in series [2] (cell cycle stage: mitosis) was 50.6 °C each time. In series [3], the “solubility change mitosis (log2)” value was determined as 0.255. Also, the thermal stability score in series [4] (setting [5]) was determined as 1.79; in series [4] (cell cycle stage: mitosis) it was 2.76.

For the sequence “MPRVKAAQAGRQSSAKRHLAEQFAVGEIITDMAKKEWKVGLPIGQGGFGCIYLADMNSSESVGSDAPCVVKVEPSDNGPLFTELKFYQRAAKPEQIQKWIRTRKLKYLGVPKYWGSGLHDKNGKSYRFMIMDRFGSDLQKIYEANAKRFSRKTVLQLSLRILDILEYIHEHEYVHGDIKASNLLLNYKNPDQVYLVDYGLAYRYCPEGVHKEYKEDPKRCHDGTIEFTSIDAHNGVAPSRRGDLEILGYCMIQWLTGHLPWEDNLKDPKYVRDSKIRYRENIASLMDKCFPEKNKPGEIAKYMETVKLLDYTEKPLYENLRDILLQGLKAIGSKDDGKLDLSVVENGGLKAKTITKKRKKEIEESKEPGVEDTEWSNTQTEEAIQTRSRTRKRVQK [VRK1]”, the “solubility in G1/S (log2)” value in series [1] is -0.215. Further, the melting temperature in series [2] (cell cycle stage: G1/S) worked out at 48.2 °C; in series [2] (cell cycle stage: mitosis), 49.8 °C. Further, the “solubility change mitosis (log2)” value in series [3] is -0.0401. The thermal stability score in series [4] (setting [5]) worked out at 3.16; in series [4] (cell cycle stage: mitosis) it was 3.91.

As for “MSATAAARKRGKPASGAGAGAGAGKRRRKADSAGDRGKSKGGGKMNEEISSDSESESLAPRKPEEEEEEELEETAQEKKLRLAKLYLEQLRQQEEEKAEARAFEEDQVAGRLKEDVLEQRGRLQKLVAKEIQAPASADIRVLRGHQLSITCLVVTPDDSAIFSAAKDCSIIKWSVESGRKLHVIPRAKKGAEGKPPGHSSHVLCMAISSDGKYLASGDRSKLILIWEAQSCQHLYTFTGHRDAVSGLAFRRGTHQLYSTSHDRSVKVWNVAENSYVETLFGHQDAVAALDALSRECCVTAGGRDGTVRVWKIPEESQLVFYGHQGSIDCIHLINEEHMVSGADDGSVALWGLSKKRPLALQREAHGLRGEPGLEQPFWISSVAALLNTDLVATGSHSSCVRLWQCGEGFRQLDLLCDIPLVGFINSLKFSSSGDFLVAGVGQEHRLGRWWRIKEARNSVCIIPLRRVPVPPAAGS [RRP9]”, the “solubility in G1/S (log2)” value in series [1] was -1.11. The melting temperature came to 59.7 °C in series [2] (cell cycle stage: G1/S) and 56.5 °C in series [2] (cell cycle stage: mitosis). The “solubility change mitosis (log2)” value in series [3] is 0.596. For the same sequence, the thermal stability score in series [4] (setting [5]) is -3.65; in series [4] (cell cycle stage: mitosis), -9.84.

As for “MSEAPRFFVGPEDTEINPGNYRHFFHHADEDDEEEDDSPPERQIVVGICSMAKKSKSKPMKEILERISLFKYITVVVFEEEVILNEPVENWPLCDCLISFHSKGFPLDKAVAYAKLRNPFVINDLNMQYLIQDRREVYSILQAEGILLPRYAILNRDPNNPKECNLIEGEDHVEVNGEVFQKPFVEKPVSAEDHNVYIYYPTSAGGGSQRLFRKIGSRSSVYSPESNVRKTGSYIYEEFMPTDGTDVKVYTVGPDYAHAEARKSPALDGKVERDSEGKEVRYPVILNAREKLIAWKVCLAFKQTVCGFDLLRANGQSYVCDVNGFSFVKNSMKYYDDCAKILGNIVMRELAPQFHIPWSIPLEAEDIPIVPTTSGTMMELRCVIAVIRHGDRTPKQKMKMEVRHQKFFDLFEKCDGYKSGKLKLKKPKQLQEVLDIARQLLMELGQNNDSEIEENKPKLEQLKTVLEMYGHFSGINRKVQLTYLPHGCPKTSSEEEDSRREEPSLLLVLKWGGELTPAGRVQAEELGRAFRCMYPGGQGDYAGFPGCGLLRLHSTYRHDLKIYASDEGRVQMTAAAFAKGLLALEGELTPILVQMVKSANMNGLLDSDSDSLSSCQQRVKARLHEILQKDRDFTAEDYEKLTPSGSISLIKSMHLIKNPVKTCDKVYSLIQSLTSQIRHRMEDPKSSDIQLYHSETLELMLRRWSKLEKDFKTKNGRYDISKIPDIYDCIKYDVQHNGSLKLENTMELYRLSKALADIVIPQEYGITKAEKLEIAKGYCTPLVRKIRSDLQRTQDDDTVNKLHPVYSRGVLSPERHVRTRLYFTSESHVHSLLSILRYGALCNESKDEQWKRAMDYLNVVNELNYMTQIVIMLYEDPNKDLSSEERFHVELHFSPGAKGCEEDKNLPSGYGYRPASRENEGRRPFKIDNDDEPHTSKRDEVDRAVILFKPMVSEPIHIHRKSPLPRSRKTATNDEESPLSVSSPEGTGTWLHYTSGVGTGRRRRRSGEQITSSPVSPKSLAFTSSIFGSWQQVVSENANYLRTPRTLVEQKQNPTVGSHCAGLFSTSVLGGSSSAPNLQDYARTHRKKLTSSGCIDDATRGSAVKRFSISFARHPTNGFELYSMVPSICPLETLHNALSLKQVDEFLASIASPSSDVPRKTAEISSTALRSSPIMRKKVSLNTYTPAKILPTPPATLKSTKASSKPATSGPSSAVVPNTSSRKKNITSKTETHEHKKNTGKKK [PPIP5K2]”, in series [1], the “solubility in G1/S (log2)” value stood at 0.0594. Further, the melting temperature in series [2] (cell cycle stage: G1/S) came out at 52.5 °C; in series [2] (cell cycle stage: mitosis) it was 52.6 °C. Moreover, the “solubility change mitosis (log2)” value in series [3] is -0.068. For the same sequence, the results for the thermal stability score in series [4] (setting [5]) and in series [4] (cell cycle stage: mitosis) were 0.0139 and 0.108, respectively.
